Measured values published in paper PMC10067955.

Target: NcsA from Methanococcus maripaludis (Methanococcus maripaludis)
Assay: SEC; apo-MmNcsA on a gel filtration column calibrated with protein standards

- stoichiometry N: 2
Substance: NcsA from Methanococcus maripaludis (enzyme)
